Columns and labels:
Settings in all cases: both partners purified
[1] = target: T1, GFP-NBR1 (recombinant, purified) (UniProt Q14596 1-966); assay: microscopy-based protein-protein interaction assay (beads); 2.5 µM GST-TAX1BP1 (FL, domain, truncations, point mutants) as bait on GST beads; 1 µM GFP-NBR1 as prey; 25 mM HEPES pH 7.5, 150 mM NaCl, 1 mM DTT; 15-30 min at RT; confocal imaging
T1 construct: NBR1; source: HEK293 (pCAGGSsH-C vector, VBCF ProTech facility), purified as described previously; not shown: GFP, N-terminal, kept
T1 sequence (looked up): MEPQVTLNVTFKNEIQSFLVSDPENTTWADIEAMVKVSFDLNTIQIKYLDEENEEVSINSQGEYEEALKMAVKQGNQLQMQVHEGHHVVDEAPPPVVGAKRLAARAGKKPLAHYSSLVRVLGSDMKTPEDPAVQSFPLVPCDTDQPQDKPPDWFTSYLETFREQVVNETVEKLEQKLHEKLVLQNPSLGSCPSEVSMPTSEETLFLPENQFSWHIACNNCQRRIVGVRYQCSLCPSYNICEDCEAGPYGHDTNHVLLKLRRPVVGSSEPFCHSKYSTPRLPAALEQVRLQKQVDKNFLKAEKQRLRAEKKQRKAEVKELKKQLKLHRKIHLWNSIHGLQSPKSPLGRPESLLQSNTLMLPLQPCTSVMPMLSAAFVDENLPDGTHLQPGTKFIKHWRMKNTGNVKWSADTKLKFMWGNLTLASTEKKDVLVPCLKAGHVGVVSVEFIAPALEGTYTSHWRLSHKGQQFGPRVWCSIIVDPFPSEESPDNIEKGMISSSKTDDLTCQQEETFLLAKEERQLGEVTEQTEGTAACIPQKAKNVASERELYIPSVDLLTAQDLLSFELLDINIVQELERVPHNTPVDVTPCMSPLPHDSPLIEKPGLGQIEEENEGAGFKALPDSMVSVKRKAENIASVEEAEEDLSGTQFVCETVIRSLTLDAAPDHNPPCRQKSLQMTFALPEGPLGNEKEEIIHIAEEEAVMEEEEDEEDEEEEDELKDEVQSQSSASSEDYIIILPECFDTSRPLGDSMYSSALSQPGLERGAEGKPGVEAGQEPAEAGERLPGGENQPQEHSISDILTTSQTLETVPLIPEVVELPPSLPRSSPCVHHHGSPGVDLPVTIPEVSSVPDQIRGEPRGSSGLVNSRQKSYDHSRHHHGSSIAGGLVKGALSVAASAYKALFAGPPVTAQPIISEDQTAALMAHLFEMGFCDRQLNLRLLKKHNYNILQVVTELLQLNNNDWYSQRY

[2] = target: T2, 10x-His-mCherry-TAX1BP1 (full length, FL) (UniProt Q86VP1 1-789); assay: microscopy-based protein-protein interaction assay (beads); mCherry-TAX1BP1 FL or ΔN on RFP-trap beads; GFP tagged NBR1 fragment CC2-LIR1 as prey
T2 construct: TAX1BP1, full length (FL); also called mCh-TAX1BP1; mCherry-TAX1BP1 FL; source: Sf9 insect cells (pLIB vector, baculovirus), purified as described previously; not shown: mCherry, N-terminal, kept

[3] = target: T3, NBR1 (untagged, recombinant) (UniProt Q14596 1-966); assay: in vitro condensation assay (recruitment to p62 condensates, microscopy); 2 µM mCherry-p62 S403E, 1 µM NBR1 (or without NBR1), 2 µM GFP-TAX1BP1 (FL, ΔN or ΔZnF; N domain) in 25 mM HEPES pH 7.5, 150 mM NaCl, 1 mM DTT; condensation triggered with 5 µM GST-4xUB; spinning disk microscopy
T3 construct: NBR1; source: HEK293 (pCAGGSsH-C vector, VBCF ProTech facility), purified as described previously
T3 sequence (looked up): T1 sequence (looked up)

T2 sequence (Q86VP1 whole entry, the tested form may be a part): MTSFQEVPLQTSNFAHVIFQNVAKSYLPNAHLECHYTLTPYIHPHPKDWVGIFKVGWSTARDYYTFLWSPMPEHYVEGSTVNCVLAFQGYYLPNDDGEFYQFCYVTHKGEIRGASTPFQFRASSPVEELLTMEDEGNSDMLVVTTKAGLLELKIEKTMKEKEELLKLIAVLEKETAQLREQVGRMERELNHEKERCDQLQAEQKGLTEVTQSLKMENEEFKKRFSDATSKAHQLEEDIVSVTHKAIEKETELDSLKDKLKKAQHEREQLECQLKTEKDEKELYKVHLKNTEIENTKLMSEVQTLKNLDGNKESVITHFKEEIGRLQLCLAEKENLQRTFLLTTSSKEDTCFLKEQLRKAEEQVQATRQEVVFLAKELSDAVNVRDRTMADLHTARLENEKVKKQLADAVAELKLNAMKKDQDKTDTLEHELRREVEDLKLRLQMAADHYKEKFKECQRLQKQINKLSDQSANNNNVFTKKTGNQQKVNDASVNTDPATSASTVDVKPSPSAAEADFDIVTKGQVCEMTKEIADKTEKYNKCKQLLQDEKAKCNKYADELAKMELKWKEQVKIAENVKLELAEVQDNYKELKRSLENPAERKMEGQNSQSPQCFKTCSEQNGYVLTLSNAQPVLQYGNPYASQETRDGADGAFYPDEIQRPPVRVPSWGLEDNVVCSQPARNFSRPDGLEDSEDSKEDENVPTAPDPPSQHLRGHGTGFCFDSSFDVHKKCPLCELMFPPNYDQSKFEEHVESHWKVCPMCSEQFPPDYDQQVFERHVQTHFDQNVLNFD

B1: GST-N domain (aa420-506 of TAX1BP1) (domain or fragment, UniProt Q86VP1 420-506, looked up)
chain: DQDKTDTLEHELRREVEDLKLRLQMAADHYKEKFKECQRLQKQINKLSDQSANNNNVFTKKTGNQQKVNDASVNTDPATSASTVDVK
binding result [1]: binds

B2: GFP-CC2-LIR1 (NBR1 aa685 - aa757) (domain or fragment, UniProt Q14596 685-757, looked up)
chain: LGNEKEEIIHIAEEEAVMEEEEDEEDEEEEDELKDEVQSQSSASSEDYIIILPECFDTSRPLGDSMYSSALSQ
notes: NBR1 fragment CC2-LIR1, aa685-757; The methods name the purified protein GST-GFP-CC2-LIR1 and give elution either by TEV cleavage or by glutathione; also called GST-GFP-CC2-LIR1; GFP tagged NBR1 fragment (CC2-LIR2); source: E. coli Rosetta (pGEX-4T1), purified (GST beads, SEC); not shown: GFP, N-terminal, kept
binding result [2]: binds

B3: GFP-N-domain (aa420-506 of TAX1BP1) (domain or fragment, UniProt Q86VP1 420-506, looked up)
chain: B1 chain
notes: TAX1BP1 N-domain, aa420-506; Cloned into pGEX-4T1; the methods name the purified protein GFP-N domain and give elution either by TEV cleavage or by glutathione; also called N-domain alone; isolated N-domain; source: E. coli Rosetta (pGEX-4T1), purified (GST beads, SEC); not shown: GFP, N-terminal, kept
binding result [3]: binds

Reference: doi:10.1101/2024.05.17.594671, “Mechanism of TAX1BP1 recruitment in aggrephagy to switch from cargo collection to sequestration” (bioRxiv, 2024)
